Molecular target: TTLL7-treated microtubules (mouse brain tubulin) (mouse (endogenous in brain)) (UniProt P68369)
Assay: TIRF microscopy, single-molecule imaging (kymographs, dwell time); MTs immobilised on a cover glass by a tubulin antibody; Kif5c-GFP in imaging buffer (BRB80, 1 mM ATP, 20 μM taxol); 35 °C; dwell times from kymographs, events shorter than 0.2 s left out, single exponential fit

Chain of UniProt P68369 (P68369 whole entry, chain 1 of 2): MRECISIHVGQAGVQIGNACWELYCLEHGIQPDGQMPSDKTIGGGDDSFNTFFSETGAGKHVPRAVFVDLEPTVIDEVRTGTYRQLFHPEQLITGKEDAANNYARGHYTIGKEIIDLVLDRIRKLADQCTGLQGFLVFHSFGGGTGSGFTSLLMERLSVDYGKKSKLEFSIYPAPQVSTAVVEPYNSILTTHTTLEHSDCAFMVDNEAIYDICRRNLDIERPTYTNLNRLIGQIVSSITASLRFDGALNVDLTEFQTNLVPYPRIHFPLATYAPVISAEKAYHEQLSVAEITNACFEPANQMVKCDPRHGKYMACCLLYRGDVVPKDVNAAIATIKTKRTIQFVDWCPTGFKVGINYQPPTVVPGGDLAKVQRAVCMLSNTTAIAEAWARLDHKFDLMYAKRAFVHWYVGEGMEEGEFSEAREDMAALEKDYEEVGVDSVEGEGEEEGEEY
Chain of UniProt P68369 (Q7TMM9 whole entry, chain 2 of 2, further chain): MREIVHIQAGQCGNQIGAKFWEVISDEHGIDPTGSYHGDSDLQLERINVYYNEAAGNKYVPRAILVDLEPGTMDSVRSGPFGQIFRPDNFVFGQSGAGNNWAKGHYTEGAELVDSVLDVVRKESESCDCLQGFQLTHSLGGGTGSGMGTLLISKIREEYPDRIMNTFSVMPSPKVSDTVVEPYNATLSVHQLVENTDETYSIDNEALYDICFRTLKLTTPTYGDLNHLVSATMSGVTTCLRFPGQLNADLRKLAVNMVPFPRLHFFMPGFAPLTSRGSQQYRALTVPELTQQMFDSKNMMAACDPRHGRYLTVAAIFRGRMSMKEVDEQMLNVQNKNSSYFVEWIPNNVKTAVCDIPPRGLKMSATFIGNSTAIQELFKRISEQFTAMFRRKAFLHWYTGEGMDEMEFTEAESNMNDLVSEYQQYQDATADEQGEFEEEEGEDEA

dwell time: 0.5 s
Substance: Kif5c-GFP (amino acids: 1–430) (from UniProt P56536 1-430) (domain or fragment)

Source: paper PMC10404701
